Source: patent US20200181248A1 (Chugai, published 2020)

Molecular target: T1, soluble form of human GPC3 (lacking the C-terminal hydrophobic region 564-580, Flag-tagged, heparan sulfate … (human, UniProt P51654 25-563, heparan sulfate modification (smear-like band of 50 to 300 kDa)))
T1 construct: also called soluble form of GPC3; purified soluble form of GPC3; not shown: Flag tag from vector pCXND2-Flag
Test: sandwich ELISA: the concentration varied is that of soluble GPC3 ('GPC3 hepa'); M6B1 coated as capture, biotin-labeled M18D4 as detection

T1 sequence (P51654 25-563, form in doubt): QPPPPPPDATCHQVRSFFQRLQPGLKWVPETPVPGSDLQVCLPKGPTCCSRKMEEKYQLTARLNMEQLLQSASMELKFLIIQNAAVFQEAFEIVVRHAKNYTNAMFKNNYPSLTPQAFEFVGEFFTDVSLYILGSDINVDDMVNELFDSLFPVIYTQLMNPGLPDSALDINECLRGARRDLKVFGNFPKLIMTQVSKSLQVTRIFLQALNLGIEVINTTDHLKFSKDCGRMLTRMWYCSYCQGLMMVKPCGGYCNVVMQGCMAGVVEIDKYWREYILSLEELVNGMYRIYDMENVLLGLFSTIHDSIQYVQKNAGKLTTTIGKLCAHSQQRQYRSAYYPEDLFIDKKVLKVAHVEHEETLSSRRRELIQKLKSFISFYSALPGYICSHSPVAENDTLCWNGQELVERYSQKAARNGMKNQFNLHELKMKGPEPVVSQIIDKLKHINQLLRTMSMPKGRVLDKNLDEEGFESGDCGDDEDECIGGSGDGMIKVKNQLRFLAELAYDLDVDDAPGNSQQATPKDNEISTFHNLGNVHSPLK

- EC50 (read off the curve): ~0.02 µg/mL
B1: M6B1 (antibody, V domains shown)
VH: EVQLVESGGDLVKPGGSLKLSCAASGFTFSSYAMSWVRQTPEKRLEWVAAINSNGGTTYYPDTMKDRFTISRDNAKNTLYLQMSSLRSEDSALYYCTRHNGGYENYGWFAYWGQGTLVTVSA
VL: DIQMTQSPSSLSASLGGKVTITCKASQDINKNIIWYQHKPGKGPRLLIWYTSTLQPGIPSRFSGSGSGRDYSFSISNLEPEDIATYYCLQYDNLPRTFGGGTKLEIK
